Experimental data reported in the nanobody polyreactivity screen of Harvey et al. (2022).

test: yeast display, Sf9 membrane polyspecificity reagent, FACS + sequencing; frameworks hold sequencing errors
Summary of the method: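 A nanobody's polyreactivity label depends on the gate it was sorted from. Yeast display cells were stained with 10% biotinylated, detergent-solubilized Sf9 membrane reagent for 1 hour at 4 °C, enriched on streptavidin microbeads and sorted by FACS. The low and high (top ~1%) gates were set on anti-HA fluorescence for expression and streptavidin fluorescence for reagent binding.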

Sequence	polyreactivity (PSR sort gate)
QVQLVESGGGLVQAGGSLRLSCAASGRIFARYAMGWYRQAPGKERELVAAISFRGGSTYYADSVKGRFTISRDNAKNTVYLQMNSQKPEDTAVYYCNGRYGRGGYDYWGQGTQVTVSS	high polyreactivity
QVQLVESGGGLVQAGGSLRLSCAASGRIFARYAMGWYRQAPGKERELVAAISFRGGSTYYADSVKGRFTISRDNAQNTVYLPMNSLKPEDTAVYYCNARYGRGGYDYWGQGTQVSVSS	high polyreactivity
QVQLVESGGGLVQAGGSLRLSCAASGRIFARYAMGWYRQAPGKERELVAAITTSGDSTYYADSVKGRFTISRDNAKNTVYLQMNSLKPEDTAVYYCAAERRYGRYYRLVRLLGQGTQVTVSS	high polyreactivity
QVQLVESGGGLVQAGGSLRLSCAASGRIFASYAMGWYRQAPGKERELVAAISLRGGSTYYADSVKGRFTISRDNAKNTVYLQMNSLKPEDTAVYYCAAYHPHGFDYYRYYYWGQGTQVTVSS	high polyreactivity
QVQLVESGGGLVQAGGSLRLSCAASGRIFASYAMGWYRQAPGKERELVAAISLSGGSTYYADSVKGRFTISRDIAKNTVYLQMNSLKPEDTAVYYCAAKNYRRYRDYYWGQGTQVTVSS	high polyreactivity
QVQLVESGGGLVQAGGSLRLSCAASGRIFASYAMGWYRQAPGKERELVAAISWSGGSTNYADSVKGRFTISRDNAKNTVYLQMNRLKPEDTAVYYCAKKKRRGYGYDYWGQGTQVTVSS	high polyreactivity
QVQLVESGGGLVQAGGSLRLSCAASGRIFASYAMGWYRQAPGKERELVASISWGGGSRTYADSVKGRFTISRDNAKNTVYLQMNSLKPEDTAVYYCAADVHYTFGMDYWGQGTQVTVSS	high polyreactivity
QVQLVESGGGLVQAGGSLRLSCAASGRIFATNAMGLYRQAPGKERELVATITRSAGRTYYADSVKGRFTISRDNAKNTVYLQMNSLKPEDTAVYYCAASYWDTEPGYREYDYWGQGTQVTVSS	low polyreactivity
QVQLVESGGGLVQAGGSLRLSCAASGRIFATNAMGWSRPAPGTERELVAGISDGGGSTYYAASVKGRFTISRDNAKNTVYLQMNRLKPEDTEVYYCAARVLDWRGDIHDSEYWGQGTQVTVSS	low polyreactivity
QVQLVESGGGLVQAGGSLRLSCAASGRIFATNARGWYRQAPGKERELVAVISSGGSTNYADSVKGRFTISRDNAKNTVYLQMNSLKPEDTAVYYCAASPGSRPTQPYDYWGQGTQVTVSS	low polyreactivity
QVQLVESGGGLVQAGGSLRLSCAASGRIFATYAMGWYRQAPGKERELVARITFTSGSTYYADSVKGRFTISRDNAKNTVYLQMNSLKPEDTAVYYCAAPWSVTRTSFDYWGQGTQVTVSS	high polyreactivity
QVQLVESGGGLVQAGGSLRLSCAASGRIFAVNAMGWYRQAPGKERELVAAINGGGSTNYADSVKGRFTISRDNAKNTVYLQMNSLKPEDTAVYYCAADVGWRSQTRGYYWGQGTQVTVSS	high polyreactivity
QVQLVESGGGLVQAGGSLRLSCAASGRIFAVYAMGWYRQAPGKEREFVAAISYSGGITYYADSVKGRFTISRDNAKNTVYLQMNSLIPEDTAVYYCNAYYYFWGQGTQVTVSS	low polyreactivity
QVQLVESGGGLVQAGGSLRLSCAASGRIFAVYVMGWYRQAPGKERELVAAISQSGGRTYYADSVKGRFTISRDNAKNTVYLQMNSLITEDTAVYYCNTVTSRATNFSGLGYWGQGTQVTVSS	high polyreactivity
QVQLVESGGGLVQAGGSLRLSCAASGRIFAWYAMGWYRQAPGKERELVAGISWIGGSTYYADSVKGRFTISRDNAKNTVYLQMNSLKPEDTAVYYCNARKKPGSRLDIIGYDYWGQGTQVTVSS	low polyreactivity
QVQLVESGGGLVQAGGSLRLSCAASGRIFAWYSMGWYRQAPGEERELVAGISWICGSTYNADSVKGRFTISRDNAKNTVYLQMNSLKPEDTAVYYCNARKKPGSLLDIIGYDYWGQGTQVTVSS	low polyreactivity
QVQLVESGGGLVQAGGSLRLSCAASGRIFAWYVMGWYRQAPGKEREFVAAIRWRSGSTHYADSVKGRFTISRDNAKNTVYLQMNSLKPEDTAVYYCARDVHGLLDYWGQGTQVTVSS	high polyreactivity
QVQLVESGGGLVQAGGSLRLSCAASGRIFAYNAMGWYRQAPGKERELVAAITRSGGSTYYADSVKGRFTISRDNAKNTVYLQMNSLKPEDTAVYYCAKRYSYYIDDYWGQGTQVTVSS	low polyreactivity
QVQLVESGGGLVQAGGSLRLSCAASGRIFAYYAMGWYRPAPGIERELVATIRGGGSTNYADSVKGRFTISRDNAKNTVYLQMNSLKPEATAVYYCAKPGAKWRGFDYWGLGTQVTVSS	low polyreactivity
QVQLVESGGGLVQAGGSLRLSCAASGRIFAYYAMGWYRQAPGKDRELVATIRSGGDTNYADSVKGRFTISRDNAKNTVDIQMNSLKTEDTAVYYCNALYYWWYPHEYNYWGQGTQVTVSS	low polyreactivity
QVQLVESGGGLVQAGGSLRLSCAASGRIFAYYAMGWYRQAPGKEREFLATITGRGGSTSYADSVKGRFTISRDNAKNTVYLQMNSLKPEDTAVYYCAKRVVVWYFGTGDYWVQGTQVTVSS	low polyreactivity
QVQLVESGGGLVQAGGSLRLSCAASGRIFAYYAMGWYRQAPGKERELVAAITTNGGGTYYADSVKGRFTISRDNAKNTVYLQMNSLKPEDTAVYYCNAVKQRSSIFDYWGQGTQVTVSS	low polyreactivity

Sequence	polyreactivity (PSR sort gate)
QVQLVESGGGLVQAGGSLRLSCAASGRIFAYYAMGWYRQAPGKERELVAAITWRGGRTYYADSVKGRFTISRDNAKTTVYLQMNSLKPEDTAVYYCAARGYYSTYKLATDDYWGQGTQVTVSS	high polyreactivity
QVQLVESGGGLVQAGGSLRLSCAASGRIFAYYAMGWYRQAPGKERELVASISSSGVSTYYADSVKGRFTISRDNAKNTVYLQMNSLKPEDTAVYYCAARQFSWDSQRYRHRYDYWGQGTQVTVSS	high polyreactivity
QVQLVESGGGLVQAGGSLRLSCAASGRIFAYYAMGWYRQAPGKERELVATIRSGGDTNYADSVKGRFTISRDNAKNTVYLQMNSLKPEDTAVYYCNALYDWWYPHEYNYWGQVTQVTVSS	low polyreactivity
QVQLVESGGGLVQAGGSLRLSCAASGRIFAYYAMGWYRQAPGTERELVAAITRRSGGITYYADSVKGRFTISRDNAKNTVYLQMNSLKPEDTAVYYCAARYRLSGKYRFTYDYWGQGTQVTVSS	high polyreactivity
QVQLVESGGGLVQAGGSLRLSCAASGRIFAYYPMGWYRPAPGKERELVAAISRSGVSTYYADSVKGRFTISRDNAKNTVYLQMNSLKPEDTAVYYCAARWRSGFTSGDYWGQGTQVTVSS	low polyreactivity
QVQLVESGGGLVQAGGSLRLSCAASGRIFAYYSMGWYRQAPGKERELVAAISRSGVSTYYADSVKGRFTISRDNAKNTVYLLMNSLKPEDTAVYYCAARWRSGFTSGDFWGQGTQVTVSS	low polyreactivity
QVQLVESGGGLVQAGGSLRLSCAASGRIFAYYTMGWYRQAPGKERELVATISGSGASTYYADSVKGRFTISRDNAKNTDYLQMNSLKPEDTAVYYCAATRFYATIYDYWGQGTQVTVSS	high polyreactivity
QVQLVESGGGLVQAGGSLRLSCAASGRIFAYYVMGWYRQAPGKERELVAVISGSGSSTYYADSVKGRFTISRDNAKNTVYLQMNSLKPEDTAVYYCAASIQLYRSFITREYWGQGTQVSVSS	high polyreactivity
QVQLVESGGGLVQAGGSLRLSCAASGRIFDANAMGWYRQAPGKERELVAAITSSGGRTYYADSVKGRFTISRDNAKNTVYLQMNSLKPEDTAVYYCARAGRSWDTLYKYYLEHDYWGQGTQVTVSS	low polyreactivity
QVQLVESGGGLVQAGGSLRLSCAASGRIFDCYAMGWYRQAPRKEREFVASISRRGGSTYYADSVKGRFTISRDNAKNTVYLQMNSLKPEDTAVYYCAADAFFRLDYYYWGQGTQVTVSS	high polyreactivity
QVQLVESGGGLVQAGGSLRLSCAASGRIFDDNTMGWYRQAPGKERELVAVITSGGSTNYADSVKGRFTISRDNAKNTVYLQMNSLKPVDTAVYYCATEPGGYRFDDRAFQYGYWGQGTQVTVSS	low polyreactivity
QVQLVESGGGLVQAGGSLRLSCAASGRIFDDYAMGRYRQAPGKERELVAAISWSGGSTYYADSVKGRFTISRDNAKNTVYLQMNSQKPVDTAVYYCSAPYHSYKRIGYDYWGQGTQVSVSS	low polyreactivity
QVQLVESGGGLVQAGGSLRLSCAASGRIFDDYAMGWYRQAPGKERELVAAISSSGGSTYYADSVKGRFTISRDNAKNTVYLQMNSLKPEDTAVYYCARYPPGRRRYEYWGQGTQVTVSS	high polyreactivity
QVQLVESGGGLVQAGGSLRLSCAASGRIFDFNPMGWYRQAPGKEREVVAAISSGGRTKYADSVKGRFTISRDNAKNTVYLQMNSLKPEDTAVYYCAASGSQPDDYWGQGTQVTVSS	high polyreactivity
QVQLVESGGGLVQAGGSLRLSCAASGRIFDHYAMGWYRQAPGKERELVAAITRSGGITYYADSVKGRFTISRDNAKNTVYLQMNSLKPEDTAVYSCAALSYRYTDKFDYWGQGTQVTVSS	low polyreactivity
QVQLVESGGGLVQAGGSLRLSCAASGRIFDHYARGWYRQAPGKERELVAAINSGGTTNYADSVKGRFTISRDNAKNTVYLQMNSLKPEDTAVYYCAARPRKGQYYFGGNYWGQGTQVTVSS	low polyreactivity
QVQLVESGGGLVQAGGSLRLSCAASGRIFDHYTLGWYRQAPGKERDFVAAISSSGGSTYYADSVKGRFTSSRDTAKNTVYLQLNSLKPEDTAVYDCAAVYHRLWGYDYWGQGPQVTVSS	high polyreactivity
QVQLVESGGGLVQAGGSLRLSCAASGRIFDIYAMGWYRQAPGKERELVAGITSVGSTNYADSVKGRFTISRDNAKNTVYLQMNSLKPEDTAVYYCAKDYLKSAAPSPQGLTHYEYWGQGTQVTVSS	low polyreactivity
QVQLVESGGGLVQAGGSLRLSCAASGRIFDKYTMGWYRQAPGKERELVATITRGGVSMYYADSVKGRFTISRDNAKNTVYLQMNSLKPEDTAVYYCNAVWRLRVRYGYWGQGTQVTVSA	high polyreactivity
QVQLVESGGGLVQAGGSLRLSCAASGRIFDLNAMGWYRQAPGKERELVAAITWSGDSTYYADSVKGRFTISRDNAKNTVYLQMNSLNPEDTAVYYCAAASRTSYSWVDYEFDYWGQGTQVTVSS	low polyreactivity
QVQLVESGGGLVQAGGSLRLSCAASGRIFDLYTMGWYRQAPGKERELVAAIRWSDGSTYYADSVKGRFTISRDNAKNTVYLQMNSLKPEDTAVYYCARDADPNIGGYYYWGQGTQVTVSS	low polyreactivity
